# Data taken from patent US20230391845A1, “GLP-1, GIP AND GLUCAGON RECEPTOR TRIPLE AGONISTS” (priority 2020, published 2023).
# *1 amine or outer side, *2 acyl side, *3 side chain or, on linkers, in order; H or OH if unused. Where a SMILES comes first, the peptide text is derived from it. Where no end group is shown, it is not given here. Side-chain parts run from the residue outwards. [ ]: non-standard residue; d: D form. The star is where a group is joined. X1 = O=C(O)CCCCCCCCCCCCCCCCCCC(=O)NCC1CCC(C(=O)*)CC1; C20 diacid = O=C(O)CCCCCCCCCCCCCCCCCCC(=O)*; γGlu = O=C(O)[C@H](CCC(=O)[*:2])N[*:1]; εLys = N[C@@H](CCCCN[*:1])C(=O)[*:2]; AEEA = NCCOCCOCC(=O)O; Aib = CC(C)(N)C(=O)O
# B1: Compound No. 14 (peptide)
# peptide: Y[Aib]QGTFTSDYSIYLEKQAA[Aib]EFVQWLLEGGPSSGAPPPS-NH2
# modifications: not fully specified (residue 16); printed as Y-Aib-QGTFTSDYSIYLE-K[2-[2-[2-[[2-[2-[2-[[(4S)-4-carboxy-4-[[4-[(19-carboxynonadecanoylamino)methyl]cyclohexanecarbonyl]amino]butanoyl]amino]ethoxy]ethoxy]acetyl]amino]ethoxy]ethoxy]acetyl]-QAA-Aib-EFVQWLLEGGPSSGAPPPS-NH2
# B2: Compound No. 16 (peptide)
# peptide: Y[Aib]QGTFTSDYSIYLEKQAA[Aib]EFVQWLLEGGPSSGAPPPS-NH2
# modifications: not fully specified (residue 16); printed as Y-Aib-QGTFTSDYSIYLE-K[2-[2-[2-[[2-[2-[2-[[(4S)-4-carboxy-4-(19-carboxynonadecanoylamino)butanoyl]amino]ethoxy]ethoxy]acetyl]amino]ethoxy]ethoxy]acetyl]-QAA-Aib-EFVQWLLEGGPSSGAPPPS-NH2
# B3: Compound No. 15 (peptide)
# peptide: Y[Aib]QGTFTSDYSIYLEKQAA[Aib]EFVNWLLAGGPSSGAPPPS-NH2
# modifications: not fully specified (residue 16); printed as Y-Aib-QGTFTSDYSIYLE-K[2-[2-[2-[[2-[2-[2-[[(4S)-4-carboxy-4-(19-carboxynonadecanoylamino)butanoyl]amino]ethoxy]ethoxy]acetyl]amino]ethoxy]ethoxy]acetyl]-QAA-Aib-EFVNWLLAGGPSSGAPPPS-NH2
# B4: Compound No. 18 (peptide)
# peptide: Y[Aib]HGTFTSDYSIYLEKQAA[Aib]EFVQWLLEGGPSSGAPPPS-NH2
# modifications: not fully specified (residue 16); printed as Y-Aib-HGTFTSDYSIYLE-K[(2S)-2-amino-6-[[(2S)-2-amino-6-[[(4S)-4-carboxy-4-(19-carboxynonadecanoylamino)butanoyl]amino]hexanoyl]amino]hexanoyl]-QAA-Aib-EFVQWLLEGGPSSGAPPPS-NH2
# Target: human glucagon receptor (human, UniProt P47871 26-477)
# Sequence (P47871 26-477): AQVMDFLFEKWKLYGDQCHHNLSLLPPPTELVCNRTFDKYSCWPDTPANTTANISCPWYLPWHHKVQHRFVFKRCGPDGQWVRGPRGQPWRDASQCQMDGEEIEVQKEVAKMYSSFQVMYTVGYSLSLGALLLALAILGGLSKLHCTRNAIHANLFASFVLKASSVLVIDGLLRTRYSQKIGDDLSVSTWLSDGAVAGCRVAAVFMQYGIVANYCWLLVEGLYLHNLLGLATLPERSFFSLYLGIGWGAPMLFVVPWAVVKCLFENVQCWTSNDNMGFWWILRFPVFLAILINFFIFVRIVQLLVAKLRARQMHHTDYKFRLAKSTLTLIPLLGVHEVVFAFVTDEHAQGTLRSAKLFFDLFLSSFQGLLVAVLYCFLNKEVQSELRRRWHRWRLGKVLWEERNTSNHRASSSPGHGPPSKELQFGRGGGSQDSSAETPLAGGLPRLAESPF
# Assay: cell-based or functional assay
# Conditions: not given
row,Molecule,hGcgR CRE Luc EC50 (pM)
1,Y[Aib]QGTFTSDYSIYLEKQAA[Aib]EFVQWLLEGGPSSGAPPPS-NH2 (not fully specified (residue 16)) [Compound No. 17],86.6 pM
2,B1,287 pM
3,B2,185 pM
4,B3,267 pM
5,B4,72.1 pM

# Target: human glucagon-like peptide 1 receptor (human, UniProt P43220 24-463)
# Assay: cell-based or functional assay
# Conditions: not given
row,Molecule,hGLP-1R CRE Luc EC50 (pM)
1,Y[Aib]QGTFTSDYSIYLEKQAA[Aib]EFVQWLLEGGPSSGAPPPS-NH2 (not fully specified (residue 16)) [Compound No. 17],2.8 pM
2,B1,4.3 pM
3,B2,3.1 pM
4,B3,1.4 pM
5,B4,106 pM

# Target: T1, human glucose-dependent insulinotropic polypeptide receptor (human, UniProt P48546 22-466)
# T1 sequence (looked up): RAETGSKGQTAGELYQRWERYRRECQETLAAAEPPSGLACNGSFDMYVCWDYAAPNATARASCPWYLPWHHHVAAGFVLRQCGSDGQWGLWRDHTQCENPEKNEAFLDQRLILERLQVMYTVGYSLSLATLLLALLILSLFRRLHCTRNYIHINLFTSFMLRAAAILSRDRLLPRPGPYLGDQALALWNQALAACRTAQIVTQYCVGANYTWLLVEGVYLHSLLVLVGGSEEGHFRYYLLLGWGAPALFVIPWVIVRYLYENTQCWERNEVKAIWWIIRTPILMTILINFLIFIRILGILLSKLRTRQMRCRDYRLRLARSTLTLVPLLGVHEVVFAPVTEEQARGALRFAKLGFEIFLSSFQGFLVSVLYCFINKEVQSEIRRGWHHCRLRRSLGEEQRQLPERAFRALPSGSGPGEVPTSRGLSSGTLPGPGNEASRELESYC
# Assay: cell-based or functional assay
# Conditions: not given
row,Molecule,hGIPR CRE Luc EC50 (pM)
1,Y[Aib]QGTFTSDYSIYLEKQAA[Aib]EFVQWLLEGGPSSGAPPPS-NH2 (not fully specified (residue 16)) [Compound No. 17],7 pM
2,B1,4.2 pM
3,B2,11.4 pM
4,B3,4.8 pM
5,B4,7.1 pM

# Target: T2, human GLP-1 receptor (Homo sapiens, UniProt P43220)
# T2 construct: expressed in transfected cells; host or cells: BHK cells (parent line BHKTS13) containing CRE luciferase
# T2 sequence (P43220 24-463): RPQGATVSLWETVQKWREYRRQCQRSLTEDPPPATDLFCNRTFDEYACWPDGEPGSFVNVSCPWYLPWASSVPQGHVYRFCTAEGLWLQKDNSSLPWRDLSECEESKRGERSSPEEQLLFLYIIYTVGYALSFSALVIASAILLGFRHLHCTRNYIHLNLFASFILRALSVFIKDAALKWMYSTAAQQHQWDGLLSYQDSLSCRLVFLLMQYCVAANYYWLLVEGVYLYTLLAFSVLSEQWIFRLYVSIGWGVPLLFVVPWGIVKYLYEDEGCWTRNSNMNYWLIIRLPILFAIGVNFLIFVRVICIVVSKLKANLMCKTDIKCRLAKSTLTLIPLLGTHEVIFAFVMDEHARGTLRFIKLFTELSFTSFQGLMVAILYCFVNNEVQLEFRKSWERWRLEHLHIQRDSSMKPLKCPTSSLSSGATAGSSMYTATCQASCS
# Assay: In vitro functional potency (CRE luciferase; whole cells), human GLP-1R
# Format: cell-based
# Conditions: BHK CRE luc2P hGLP-1R whole cells; Table 2; read-out: hGLP-1R CRE Luc EC50
row,Molecule,EC50
1,CC[C@H](C)[C@H](NC(=O)[C@H](CO)NC(=O)[C@H](Cc1ccc(O)cc1)NC(=O)[C@H](CC(=O)O)NC(=O)[C@H](CO)NC(=O)[C@@H](NC(=O)[C@H](Cc1ccccc1)NC(=O)[C@@H](NC(=O)CNC(=O)[C@H](CCC(N)=O)NC(=O)C(C)(C)NC(=O)[C@@H](N)Cc1ccc(O)cc1)[C@@H](C)O)[C@@H](C)O)C(=O)N[C@@H](Cc1ccc(O)cc1)C(=O)N[C@@H](CC(C)C)C(=O)N[C@@H](CCC(=O)O)C(=O)N[C@@H](CCCCN)C(=O)N[C@@H](CCC(N)=O)C(=O)N[C@@H](C)C(=O)N[C@@H](C)C(=O)NC(C)(C)C(=O)N[C@@H](CCCCNC(=O)COCCOCCNC(=O)COCCOCCNC(=O)CC[C@H](NC(=O)C1CCC(CNC(=O)CCCCCCCCCCCCCCCCCCC(=O)O)CC1)C(=O)O)C(=O)N[C@@H](Cc1ccccc1)C(=O)N[C@H](C(=O)N[C@@H](CCC(N)=O)C(=O)N[C@@H](Cc1c[nH]c2ccccc12)C(=O)N[C@@H](CC(C)C)C(=O)N[C@@H](CC(C)C)C(=O)N[C@@H](CCC(=O)O)C(=O)NCC(=O)NCC(=O)N1CCC[C@H]1C(=O)N[C@@H](CO)C(=O)N[C@@H](CO)C(=O)NCC(=O)N[C@@H](C)C(=O)N1CCC[C@H]1C(=O)N1CCC[C@H]1C(=O)N1CCC[C@H]1C(=O)N[C@@H](CO)C(N)=O)C(C)C (stereo partly shown) [Compound No. 11] (H-Y[Aib]QGTFTSDYSIYLEKQAA[Aib]K([AEEA-AEEA-γGlu-X1])FVQWLLEGGPSSGAPPPS-NH2; N-terminus assumed),4.3 pM
2,CC[C@H](C)[C@H](NC(=O)[C@H](CO)NC(=O)[C@H](Cc1ccc(O)cc1)NC(=O)[C@H](CC(=O)O)NC(=O)[C@H](CO)NC(=O)[C@@H](NC(=O)[C@H](Cc1ccccc1)NC(=O)[C@@H](NC(=O)CNC(=O)[C@H](CCC(N)=O)NC(=O)C(C)(C)NC(=O)[C@@H](N)Cc1ccc(O)cc1)[C@@H](C)O)[C@@H](C)O)C(=O)N[C@@H](Cc1ccc(O)cc1)C(=O)N[C@@H](CC(C)C)C(=O)N[C@@H](CCC(=O)O)C(=O)N[C@@H](CCCCNC(=O)[C@@H](N)CCCCNC(=O)[C@@H](N)CCCCNC(=O)CC[C@H](NC(=O)CCCCCCCCCCCCCCCCCCC(=O)O)C(=O)O)C(=O)N[C@@H](CCC(N)=O)C(=O)N[C@@H](C)C(=O)N[C@@H](C)C(=O)NC(C)(C)C(=O)N[C@@H](CCC(=O)O)C(=O)N[C@@H](Cc1ccccc1)C(=O)N[C@H](C(=O)N[C@@H](CCC(N)=O)C(=O)N[C@@H](Cc1c[nH]c2ccccc12)C(=O)N[C@@H](CC(C)C)C(=O)N[C@@H](CC(C)C)C(=O)N[C@@H](CCC(=O)O)C(=O)NCC(=O)NCC(=O)N1CCC[C@H]1C(=O)N[C@@H](CO)C(=O)N[C@@H](CO)C(=O)NCC(=O)N[C@@H](C)C(=O)N1CCC[C@H]1C(=O)N1CCC[C@H]1C(=O)N1CCC[C@H]1C(=O)N[C@@H](CO)C(N)=O)C(C)C [Compound No. 17] (H-Y[Aib]QGTFTSDYSIYLEK([εLys-εLys-γGlu-C20 diacid])QAA[Aib]EFVQWLLEGGPSSGAPPPS-NH2),2.8 pM
3,CC[C@H](C)[C@H](NC(=O)[C@H](CO)NC(=O)[C@H](Cc1ccc(O)cc1)NC(=O)[C@H](CC(=O)O)NC(=O)[C@H](CO)NC(=O)[C@@H](NC(=O)[C@H](Cc1ccccc1)NC(=O)[C@@H](NC(=O)CNC(=O)[C@H](Cc1c[nH]cn1)NC(=O)C(C)(C)NC(=O)[C@@H](N)Cc1c[nH]cn1)[C@@H](C)O)[C@@H](C)O)C(=O)N[C@@H](Cc1ccc(O)cc1)C(=O)N[C@@H](CC(C)C)C(=O)N[C@@H](CCC(=O)O)C(=O)N[C@@H](CCCCNC(=O)[C@@H](N)CCCCNC(=O)[C@@H](N)CCCCNC(=O)CC[C@H](NC(=O)CCCCCCCCCCCCCCCCCCC(=O)O)C(=O)O)C(=O)N[C@@H](CCCNC(=N)N)C(=O)N[C@@H](C)C(=O)N[C@@H](C)C(=O)NC(C)(C)C(=O)N[C@@H](CCC(=O)O)C(=O)N[C@@H](Cc1ccccc1)C(=O)N[C@H](C(=O)N[C@@H](CCC(N)=O)C(=O)N[C@@H](Cc1c[nH]c2ccccc12)C(=O)N[C@@H](CC(C)C)C(=O)N[C@@H](CC(C)C)C(=O)N[C@@H](CCC(=O)O)C(=O)NCC(=O)NCC(=O)N1CCC[C@H]1C(=O)N[C@@H](CO)C(=O)N[C@@H](CO)C(=O)NCC(=O)N[C@@H](C)C(=O)N1CCC[C@H]1C(=O)N1CCC[C@H]1C(=O)N1CCC[C@H]1C(=O)N[C@@H](CO)C(N)=O)C(C)C [Compound No. 37] (H-H[Aib]HGTFTSDYSIYLEK([εLys-εLys-γGlu-C20 diacid])RAA[Aib]EFVQWLLEGGPSSGAPPPS-NH2; N-terminus assumed),1.8 pM
4,CC[C@H](C)[C@H](NC(=O)[C@H](CO)NC(=O)[C@H](Cc1ccc(O)cc1)NC(=O)[C@H](CC(=O)O)NC(=O)[C@H](CO)NC(=O)[C@@H](NC(=O)[C@H](Cc1ccccc1)NC(=O)[C@@H](NC(=O)CNC(=O)[C@H](Cc1c[nH]cn1)NC(=O)C(C)(C)NC(=O)[C@@H](N)Cc1c[nH]cn1)[C@@H](C)O)[C@@H](C)O)C(=O)N[C@@H](CC(C)C)C(=O)N[C@@H](CC(C)C)C(=O)N[C@@H](CCC(=O)O)C(=O)N[C@@H](CCCCNC(=O)[C@@H](N)CCCCNC(=O)[C@@H](N)CCCCNC(=O)CC[C@H](NC(=O)CCCCCCCCCCCCCCCCCCC(=O)O)C(=O)O)C(=O)N[C@@H](CCC(N)=O)C(=O)N[C@@H](C)C(=O)N[C@@H](C)C(=O)N[C@@H](CCCNC(=N)N)C(=O)N[C@@H](CCC(=O)O)C(=O)N[C@@H](Cc1ccccc1)C(=O)N[C@H](C(=O)N[C@@H](CCC(N)=O)C(=O)N[C@@H](Cc1c[nH]c2ccccc12)C(=O)N[C@@H](CC(C)C)C(=O)N[C@@H](CC(C)C)C(=O)N[C@@H](CCC(=O)O)C(=O)NCC(=O)NCC(=O)N1CCC[C@H]1C(=O)N[C@@H](CO)C(=O)N[C@@H](CO)C(=O)NCC(=O)N[C@@H](C)C(=O)N1CCC[C@H]1C(=O)N1CCC[C@H]1C(=O)N1CCC[C@H]1C(=O)N[C@@H](CO)C(=O)O)C(C)C [Compound No. 55] (H-H[Aib]HGTFTSDYSILLEK([εLys-εLys-γGlu-C20 diacid])QAAREFVQWLLEGGPSSGAPPPS-OH; N-terminus assumed),2 pM
